B1: SB7: anti-CDCP1 antibody by single B cell technique; VH SEQ ID NO: 277, VL SEQ ID NO: 327 (antibody, V domains shown)
VH: QVQLQQSGPELVSPGESVKISCKGSGYTFTDYAVHWVKQSHSKSLEWIGVKSVYYGITKYSQNFKDKATMTVDKSSSTAYMELARLTSEDSAIYYCARDSYGSSRGYFDYWGQGTTLTVSS
VL: DIKMTQSPSSIYVSPGERVTITCKASQDINSFLSWFQQKPGKSPKTLIYRANRLVDGVPSRFSGSGSGQDYSLTISSLEYEDMGIYYCLQYDEFPRTFGGGTKLEIK
modifications: SB7 heavy chain variable region; SB7 light chain variable region
B2: SB6: anti-CDCP1 antibody by single B cell technique; VH SEQ ID NO: 276, VL SEQ ID NO: 326 (antibody, V domains shown)
VH: QGQMQQSGAELVKPGASVKLSCKTSGFTFNSSYITWLKQKPGQSLEWIAWIFAGTGGTYYNEKFTDKAQLTVDTTSSTAYMQFSSLTTEDSAIYYCARHGLGYDYWGQGTTLTVSS
VL: SIVMTQTPKFLLVSAGDRVTITCKASQSVNTDVAWYQQKSGQSPKLLIYSASNRYTGVPDRFTGSGYGTDFTFTISTVQAEDLAVYFCQQDHSSPPWTFGGGTKLEIK
modifications: SB6 heavy chain variable region; SB6 light chain variable region
B3: SB8: anti-CDCP1 antibody by single B cell technique; VH SEQ ID NO: 278, VL SEQ ID NO: 328 (antibody, V domains shown)
VH: QVTLKESGPGILKPSQTLSLTCSFSGFSLSTSGVGVGWIRQPSGKGLEWLAHIWWDDEKYYNPSLKSHFTISKDTSRNQVFLKITSVDTADTATYYCVKEGDGMDYWGQGTSVTVSS
VL: QAVVTQESALTTSPGETVTLTCRSSTGAVATSNYANWVQEKPDHLFTGLIGGTNNRVPGVPARFSGSLIGDKAALTITGAQTEDEAIYFCALWYSNHWVFGGGTKLTVL
modifications: SB8 heavy chain variable region; SB8 light chain variable region
B4: SB4: anti-CDCP1 antibody by single B cell technique; VH SEQ ID NO: 274, VL SEQ ID NO: 324 (antibody, V domains shown)
VH: QVQLQQSGAELVRPGTSVKISCKASGYTFTNYWLGWVKQRPGHGLEWIGDNYPGDNYRNFNEKFKGKATLTTDASSSTAYLQLSSLISEDSAVYFCTRSGGSRYYTMDYWGQGTSVTVSS
VL: DIVMTQAAFSNPVTLGTSASISCRSSRSLLHNNGITYLYWYLQKPGQSPQLLIYQMSNLASGVPDRFHSSGSGTDFTLSISRVEAEDVGVYYCAQNLDLPYTFGGGTKLEIK
modifications: SB4 heavy chain variable region; SB4 light chain variable region
B5: SB1: anti-CDCP1 antibody by single B cell technique; VH SEQ ID NO: 271, VL SEQ ID NO: 321 (antibody, V domains shown)
VH: QVQLQQSGPDLVRPGESVKISCKGSGYTFTDHAIHWVRQSHAKSLEWIGVISFSYDNTKYNQNFKGKATMTVDKSSNTAYMELARLTSEDSAIYYCARDCYGSNRGYFDYWGQGTTLTVSS
VL: DIRMTQSPSSMYASLGERVTITCKASQDINRFLSWFLQRPGKAPKTLIYRANNLVEGVPSRFSGSGSGQDYSLIISNLEYEDMGIYYCLQYDEFPRTFGGGTKLEIK
modifications: SB1 heavy chain variable region; SB1 light chain variable region
B6: SB5: anti-CDCP1 antibody by single B cell technique; VH SEQ ID NO: 275, VL SEQ ID NO: 325 (antibody, V domains shown)
VH: QVQLRESGPGLVAPSQSLSITCTVSGFSLTDFGVNWVRQPPGKGLEWLGIIWANGRIEYNSALKSRLSISKDNSRSQVFLKLNSLQTDDTARYYCARDHDYDVEAMDYWGQGTSVTVSA
VL: QIVLTQSPAIKSASPGEKVTMTCSASSSVIYMHWYQQKSGSSPKRWIYDTSKLASGVPVRFSGSGSGTSYSLTISTMEAEDAATYYCQQWSSYPPTFGGGTKVEIK
modifications: SB5 heavy chain variable region; SB5 light chain variable region

Key:
Assay type in all cases: cell-based, human
MDA-MB-231 cells [1] = assay: Endocytosis capacity of single B cell antibodies; conditions: MDA-MB-231, 2 h at 37° C., antibody 1.5 μg/mL
Description: The endocytosis capacity of the antibody was detected for 0.5 to 2 hours. MDA-MB-231 cells were subjected to digestion with 5 mM EDTA, and plated at 2×10^4 cells/well after cell counting. After adding an Fc blocker (Human TruStain FcX™, Biolegend, 422302) and blocking at room temperature for 10 mins, a test antibody (1.5 μg/mL) was added, and the mixture was incubated at 4° C. for 30 mins, centrifuged, and washed twice with PBS+2% FBS, then the cells were divided into four equal portions (labeled as 0 h, 0.5 h, 1 h, 2 h), cells labeled as 0.5 h, 1 h, 2 h time points were added to 200 μL of cell culture medium, and cultured at 37° C. for 0.5 h, 1 h, 2 h, respectively. Cells at 0 h point were centrifuged, a secondary antibody (PE anti-human IgG Fc Antibody, Biolegend, 410708) was added, and the mixture was incubated at 4° C. for 30 mins, centrifuged, and washed twice with PBS+2% FBS, and detection was performed using a flow cytometer. After incubation of cells labeled as 0.5 h, 1 h, and 2 h points at 37° C. was completed, a secondary antibody was added (in the same steps as those at 0 h point), Geo-MFI of the signal under the same voltage was collected as detection signal at 0 h, and antibody internalization rate was calculated according to the following equation: Internalization (%)=(Geo-MFI (0 h)-Geo-MFI (2 h))/Geo-MFI (0 h)×100%.

MDA-MB-231 cells [2] = assay: Flow cytometry binding of murine monoclonal antibody to tumor cells; conditions: cells with high expression of CDCP1
Description: (§1) Flow cytometry was used to detect the binding capacity of antibody to tumor cells. […] 2.0×10^4 tumor cells were added per well, respectively, and 50 μL (PBS+2% FBS) were added, and after blocking at room temperature with an Fe blocker (Human TruStain FcX™, Biolegend, 422302) for 10 mins, an anti-CDCP1 murine monoclonal antibody at a final concentration of 200 nM was added. The obtained mixture was subjected to a 3-fold serial dilution across 8 concentration points, and incubated at 4° C. for 30 mins, and then incubated with a secondary antibody (PE anti-human IgG Fc Antibody, Biolegend, 410708), detection was performed using a flow cytometer.

PC3 cells = assay: as above; conditions: cells with high expression of CDCP1
Description: as §1

Molecule | Internalization MDA-MB-231 (%) (MDA-MB-231 cells [1]) | EC50 (MDA-MB-231 cells [2]) | EC50 (PC3 cells)
B1 | 31.67% | – | –
B2 | 63.21% | – | –
B3 | – | 0.93 nM | 0.91 nM
B4 | 83.16% | – | –
B5 | 34.65% | – | –
B6 | 15.63% | – | –
